Positions count from the first letter of the chain named. Names and notes keep the numbering of the source.
What was measured:
[1] = target: T1, BMPRIa receptor/Fc fusion (R&D Systems) (UniProt P36894 24-152); assay: plate direct binding assay (ELISA-like): BMP-7 captured by anti-BMP-7 antibody, receptor-Fc titrated (x axis Receptor, ug/mL), anti-human IgG-HRP, absorbance 450 nm
T1 construct: also called ALK-3; not shown: Fc portion of the fusion

[2] = target: T2, BMPRII receptor/Fc fusion (R&D Systems) (UniProt Q13873 27-151, limits assumed); assay: as above
T2 construct: not shown: Fc portion of the fusion
T2 sequence (looked up): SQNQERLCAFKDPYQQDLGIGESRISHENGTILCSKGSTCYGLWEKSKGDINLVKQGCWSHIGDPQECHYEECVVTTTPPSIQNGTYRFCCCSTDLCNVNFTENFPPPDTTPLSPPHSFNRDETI

[3] = target: T3, BMPRIb receptor/Fc fusion (R&D Systems) (UniProt O00238 14-126); assay: as above
T3 construct: also called ALK-6; not shown: Fc portion of the fusion
T3 sequence (looked up): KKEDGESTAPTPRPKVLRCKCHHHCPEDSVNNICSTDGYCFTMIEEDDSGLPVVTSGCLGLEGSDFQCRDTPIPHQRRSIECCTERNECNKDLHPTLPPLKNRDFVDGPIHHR

[4] = target: T4, ActRIIa receptor/Fc fusion (R&D Systems) (UniProt P27037 20-134, limits assumed); assay: as above
T4 construct: not shown: Fc portion of the fusion

[5] = target: T5, BMPRIb Fc fusion (R&D Systems) (UniProt O00238 14-126); assay: AlphaScreen competition against biotinylated Y65N/S120D BMP-7
T5 construct: Bought receptor/Fc fusion; also called ALK-6; not shown: Fc part of the bought fusion
T5 sequence (looked up): T3 sequence (looked up)
Description: (§1) The Y65N/S120D variant of BMP-7 was also biotinylated for use in AlphaScreen assays using NHS-biotin. Bioactivity of the biotinylated protein was confirmed. AlphaScreen assays were performed to determine the binding affinity of selected BMP-7 variants for Fc fusions of the receptors BMPRIa, BMPRIb, ActRIIa, and BMPRII and the inhibitor noggin (R&D Systems). AlphaScreen assays were also performed to determine the affinity of selected variants for an anti-BMP-7 monoclonal antibody (R&D Systems mAb 3541). In all cases, 12-point binding curves were obtained in triplicate. Each data point corresponds to the luminescence produced from a solution comprising 10 uL of serially diluted BMP-7 variant, 10 uL receptor, inhibitor, or antibody, 10 uL biotinylated BMP-7, 10 uL AlphaScreen™ acceptor beads, and 10 uL AlphaScreen™ donor beads. Prism was used to calculate EC50 values for selected experiments.

[6] = target: T6, ActRIIa Fc fusion (R&D Systems) (UniProt P27037 20-134, limits assumed); assay: as above
T6 construct: Bought receptor/Fc fusion; not shown: Fc part of the bought fusion
Description: as §1

[7] = target: T7, BMPRII Fc fusion (R&D Systems) (UniProt Q13873 27-151, limits assumed); assay: as above
T7 construct: Bought receptor/Fc fusion; not shown: Fc part of the bought fusion
T7 sequence (looked up): T2 sequence (looked up)
Description: as §1

[8] = target: T8, noggin Fc fusion (R&D Systems) (UniProt Q13253 28-232, limits assumed); assay: as above
T8 construct: Bought noggin/Fc fusion; not shown: Fc part of the bought fusion
T8 sequence (looked up): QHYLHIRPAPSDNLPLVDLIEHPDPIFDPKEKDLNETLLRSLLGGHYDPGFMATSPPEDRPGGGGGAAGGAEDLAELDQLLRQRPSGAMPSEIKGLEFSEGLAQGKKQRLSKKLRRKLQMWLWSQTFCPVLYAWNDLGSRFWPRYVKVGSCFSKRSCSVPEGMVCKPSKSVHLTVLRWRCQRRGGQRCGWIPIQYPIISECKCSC
Description: as §1

[9] = target: T9, anti-BMP-7 antibodies of the commercial ELISA (R&D Systems ELISA Duoset Cat#DY354); assay: sandwich ELISA (R&D Systems BMP7 ELISA Cat#DY354), BMP-7 protein titrated, % ELISA signal; the EC50 column carries no unit, the concentration axis is in ug/mL
T9 construct: also called antibody; ELISA antibody

[10] = target: T2, BMPRII receptor/Fc fusion (R&D Systems); assay: plate direct binding assay, receptor-Fc detection, 12-point dilution of conditioned media
Description: (§2) The affinity of human and variant BMP-7 for several BMP receptors (ActRIa, BMPRIb, ActRIIa, and BMPRII) was measured using an ELISA-like assay, described below. 96-well plates were coated with a capture antibody (R&D Systems BMP-7 ELISA Duoset DY354, part #840971) by diluting the antibody to 2 μg/mL in PBS, applying 50 μL/well, and incubating overnight or over the weekend at 4° C., in a humidified chamber. Excess liquid was removed from each plate. The plates were blocked by adding 175 μL blocking solution (1% BSA and 5% sucrose in PBS) to each well and incubating 1-2 hours at room temperature in a humidified chamber. The plates were then washed using an automated plate washer. 50 μL of BMP-7 containing solution (for example, diluted conditioned media obtained from the BMP-7 expression protocol above, or purified recombinant human BMP-7 of a known concentration) was added to each well and incubated 1.5-2 hours at room temperature in a humidified chamber. The plates were then washed using an automated plate washer. 50 μL of 5 μg/mL BMP receptor-Fc fusion in PBS was added to each well and incubated 1.5 hours at room temperature in a humidified chamber. The plates were then washed using an automated plate washer. 50 μL of 1:10,000 diluted anti-human IgG-HRP conjugate in secondary antibody dilution buffer (1% BSA in PBS, filtered through a 0.2 […] filter) was added to each well and incubated 30 minutes at room temperature in a humidified chamber. The plates were then washed using an automated plate washer. 50 μL of pre-mixed TMB substrate (BD Pharmingen #555214) was added to each well and incubated for 10-20 minutes at room temperature in the dark. 25 μL of 2N H₂SO₄ was added to each well. Absorbance readings at 450 nm were taken using a 540 nm wavelength correction.
(§3) To further characterize receptor binding, dose-response binding assays, using 12-point serial dilutions from conditioned media, were conducted for selected Library 1 variants.

[11] = target: T4, ActRIIa receptor/Fc fusion (R&D Systems); assay: as above
Description: as §2, §3

[12] = target: T5, BMPRIb Fc fusion (R&D Systems); assay: AlphaScreen competition; EC50 relative to wild type BMP-7 (R&D Systems)
Description: as §1

[13] = target: T6, ActRIIa Fc fusion (R&D Systems); assay: as above
Description: as §1

[14] = target: T7, BMPRII Fc fusion (R&D Systems); assay: as above
Description: as §1

[15] = target: T8, noggin Fc fusion (R&D Systems); assay: as above
Description: as §1

[16] = target: T10, BMPRII receptor-Fc fusion (UniProt Q13873 27-151, limits assumed); assay: ELISA-like, fixed volume of conditioned media, receptor-Fc
T10 construct: BMP receptor-Fc fusion, detected with anti-human IgG-HRP
T10 sequence (looked up): T2 sequence (looked up)

[17] = target: T11, ActRIIa receptor-Fc fusion (UniProt P27037 20-134, limits assumed); assay: as above
T11 construct: BMP receptor-Fc fusion, detected with anti-human IgG-HRP

[18] = target: T12, BMPRIa receptor-Fc fusion (UniProt P36894 24-152, limits assumed); assay: as above
T12 construct: BMP receptor-Fc fusion; also called ALK-3

[19] = target: T13, BMPRIb receptor-Fc fusion (UniProt O00238 14-126); assay: as above
T13 construct: BMP receptor-Fc fusion, detected with anti-human IgG-HRP; also called ALK-6
T13 sequence (looked up): T3 sequence (looked up)

T4 sequence (P27037 20-134 limits assumed): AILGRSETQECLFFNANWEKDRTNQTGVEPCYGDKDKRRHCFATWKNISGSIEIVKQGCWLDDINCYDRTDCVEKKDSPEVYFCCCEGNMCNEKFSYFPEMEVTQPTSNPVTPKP
T6 sequence (P27037 20-134 limits assumed): as above
T12 sequence (P36894 24-152 limits assumed): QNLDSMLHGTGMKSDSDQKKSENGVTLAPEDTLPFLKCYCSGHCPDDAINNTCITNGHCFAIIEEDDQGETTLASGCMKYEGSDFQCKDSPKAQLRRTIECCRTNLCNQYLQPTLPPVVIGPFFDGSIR
T11 sequence (P27037 20-134 limits assumed): as the sequence (P27037 20-134 limits assumed) above
T1 sequence (P36894 24-152 limits assumed): as the sequence (P36894 24-152 limits assumed) above

B1: wild type human BMP-7 (Image clone) (ligand)
chain: STGGKQRSQNRSKTPKNQEALRMASVAENSSSDQRQACKKHELYVSFRDLGWQDWIIAPEGYAAYYCEGECAFPLNSYMNATNHAIVQTLVHFINPETVPKPCCAPTQLNAISVLYFDDSSNVILKKYRNMVVRACGCH
notes: The pro-protein is processed to a dimeric mature BMP-7; also called WT; wild-type BMP-7
For B1, the “EC50 (read off the curve)” value [1] was ~1 µg/mL, the “EC50 (read off the curve)” value [2] was ~1 µg/mL and the “EC50 (read off the curve)” value [3] was ~0.7 µg/mL. For the same binder, the “EC50 (read off the curve)” value [4] was ~0.2 µg/mL.

B2: wild type human BMP-7 (R&D Systems) (ligand)
chain: B1 chain
notes: Bought recombinant protein; It describes BMPs as dimers; also called wt; recombinant human BMP-7
B2 gave an EC50 [5] of 0.0499 µg/mL, an EC50 [6] of 0.107 µg/mL and an EC50 [7] of 0.23 µg/mL. For the same binder, the EC50 [8] was 2.85 µg/mL.

B3: recombinant human BMP-7 (R&D Systems) (ligand)
chain: B1 chain
notes: Bought protein; also called wild type human BMP-7 (R&D Systems); wt
For B3, the EC50 [9] was 0.00112 µg/mL.

B4: BMP-7 variant Q53H (ligand)
chain: B1 chain with Q53H
For B4, the “fold reduced affinity relative to wild type” value [10] was ~10 fold.

B5: BMP-7 variant M23N (ligand)
chain: B1 chain with M23N
In the case of B5, the “fold increased affinity relative to wild type” value [11] is reported as ~10 fold.

B6: BMP-7 variant 504 (Y65N/S120D) (ligand)
chain: B1 chain with Y65N, S120D
notes: Expressed from the full-length Image clone and processed to the mature dimer; Purified from conditioned media on SP-sepharose; also called v504
B6 gave an EC50 [5] of 0.0185 µg/mL, an EC50 [6] of 0.0475 µg/mL and an EC50 [7] of 0.222 µg/mL. For the same binder, the EC50 [8] was 3.4 µg/mL, the “Fold change vs. wt” value [12] was 0.371 fold and the “Fold change vs. wt” value [13] was 0.445 fold. For the same binder, the “Fold change vs. wt” value [14] was 0.969 fold and the “Fold change vs. wt” value [15] was 1.19 fold.

B7: BMP-7 variant S77T (ligand)
chain: B1 chain with S77T
In the case of B7, the “BMPRII binding relative to wild type” value [16] is reported as 0.93 relative to wt = 1.0, the “ActRIIa binding relative to wild type” value [17] is reported as 0.99 relative to wt = 1.0 and the “BMPRIa binding relative to wild type” value [18] is reported as 0.94 relative to wt = 1.0. For the same binder, the “BMPRIb binding relative to wild type” value [19] was 0.9 relative to wt = 1.0.

B8: BMP-7 variant Q53G (ligand)
chain: B1 chain with Q53G
With B8 the “fold increased affinity relative to wild type” value [11] was ~10 fold.

B9: BMP-7 variant 504 (Y65N/S120D) (ligand)
chain: B1 chain with Y65N, S120D
notes: Purified, unlabeled variant; also called v504
Work on B9 yielded an EC50 [9] of 0.00821 µg/mL.

B10: BMP-7 variant 526 (K39S/S120D/R134E) (ligand)
chain: B1 chain with K39S, S120D, R134E
notes: Purified variant; also called v526
B10 gave an EC50 [9] of 0.00119 µg/mL.

B11: BMP-7 variant 565 (Y65N/F93T/R129D) (ligand)
chain: B1 chain with Y65N, F93T, R129D
notes: Purified variant; also called v565
In the case of B11, the EC50 [9] is reported as 0.00688 µg/mL.

B12: BMP-7 variant 565 (Y65N/F93T/R129D) (ligand)
chain: B1 chain with Y65N, F93T, R129D
notes: Expressed from the full-length Image clone and processed to the mature dimer; Purified from conditioned media on SP-sepharose; also called v565
For B12, the EC50 [5] was 0.0224 µg/mL, the EC50 [6] was 0.0424 µg/mL and the EC50 [7] was 0.409 µg/mL. For the same binder, the EC50 [8] was 0.392 µg/mL, the “Fold change vs. wt” value [12] was 0.448 fold and the “Fold change vs. wt” value [13] was 0.397 fold. For the same binder, the “Fold change vs. wt” value [14] was 1.78 fold and the “Fold change vs. wt” value [15] was 0.137 fold.

B13: BMP-7 variant I86D (ligand)
chain: B1 chain with I86D
In the case of B13, the “fold reduced affinity relative to wild type” value [10] is reported as ~10 fold.

B14: BMP-7 variant S77P (ligand)
chain: B1 chain with S77P
With B14 the “BMPRII binding relative to wild type” value [16] was 0.85 relative to wt = 1.0, the “ActRIIa binding relative to wild type” value [17] was 0.92 relative to wt = 1.0 and the “BMPRIa binding relative to wild type” value [18] was 0.68 relative to wt = 1.0. The “BMPRIb binding relative to wild type” value [19] was 0.95 relative to wt = 1.0.

B15: BMP-7 variant 526 (K39S/S120D/R134E) (ligand)
chain: B1 chain with K39S, S120D, R134E
notes: Expressed from the full-length Image clone and processed to the mature dimer; Purified from conditioned media on SP-sepharose; also called v526
B15 showed an EC50 [5] of 0.0363 µg/mL, an EC50 [6] of 0.0445 µg/mL and an EC50 [7] of 0.139 µg/mL. For the same binder, the EC50 [8] was 16.7 µg/mL, the “Fold change vs. wt” value [12] was 0.727 fold and the “Fold change vs. wt” value [13] was 0.416 fold. For the same binder, the “Fold change vs. wt” value [14] was 0.607 fold and the “Fold change vs. wt” value [15] was 5.83 fold.

Source: US20060058231A1 (Xencor, published 2006)
